B1: 2E4: humanized anti-SEZ6L2 antibody, VH SEQ ID NO: 25, VL SEQ ID NO: 29 (antibody, V domains shown)
VH: EVKLVESGGVLVKPGGSLRLSCAASGFTFSKYAMSWVRQAPGKGLEWVSTISSGGSYTYYPDSVKGRFTISRDNARNSLYLQMNSLRAEDTAIYYCTREGGYDEGYAMDYWGQGTTVTVSSA
VL: DIVMTQSPDSLAVSLGERATINCRSSQSLVHSYGNTYLHWYQQKPGQPPKLLIYKVSNRFSGVPDRFSGSGSGTDFTLTISSLQAEDVAVYFCSQSTHFRTFGGGTKVEIKR
B2: 3E2: humanized anti-SEZ6L2 antibody, VH SEQ ID NO: 9, VL SEQ ID NO: 13 (antibody, V domains shown)
VH: EVQLVESGGGLVQPGGSLKLSCAASGFSFNTITMNWVRQASGKGLEWVGRIRSKSNNYATYYADAVKDRFTISRDDSKNTAYLQMNSLKTEDTAVYYCVRGIFSGYVYAMDYWGQGTLVTVSSA
VL: DVVMTQSPLSLPVTVGQPASISCRSSQSIVHSNGNTYLEWFQQRPGQSPRVLIYKVSNRFSGVPDRFSGSGSGTDFTLKISRVEAEDVGVYYCFQGSHVPYTFGGGTKLEIKR
B3: 20C4: humanized anti-SEZ6L2 antibody, VH SEQ ID NO: 17, VL SEQ ID NO: 21 (antibody, V domains shown)
VH: EVQLVESGGGLVQPGGSLRLSCAASGFTFTDYYMSWVRQAPGKGLEWVALIRNKANGYTTEYSASVKGRFTISRDNSKNSLYLQMNSLRAEDTAVYYCARNGLYGLFAYWGQGTLVTVSSA
VL: DIVMTQTPLSIPVTPGEPASISCRSSTSLLESSGKHRLYWYLQKPGQSPQLLIYYMSNLASGVPDRFSGSGSGTDFTLKISRVEAEDFGVYYCMQSLEYPLTFGAGTKVEIKR
B4: 16H8: humanized anti-SEZ6L2 antibody, VH SEQ ID NO: 1, VL SEQ ID NO: 5 (antibody, V domains shown)
VH: QIQLVQPGAEVKKPGASVKVSCKASGYTFTSYWMYWVRQAPGQGLEWMGAIYPRDSDTSYNQKFKGRVTMTRVTSTSTVYMELSSLRSEDTAVYYCTRGDYYYGSSYYAMDYWGQGTTVTVSSA
VL: DIVMTQSPLSLPVTPGEPASISCSSSKSLLHSNGITYLYWYLQKPGQSPQLLIYRMSNLASGVPDRFSGSGSGTDFTLKISRVEAEDVGVYYCAQMLERPYTFGQGTKVEIKR
B5: 3B6: human anti-SEZ6L2 antibody, VH SEQ ID NO: 109, VL SEQ ID NO: 113 (antibody, V domains shown)
VH: QVQLVQSGAEVKKPGASVKVSCKASGYTFTAYYMHWVRQAPGQGLEWMGWINPNSGGTNYAQKFQGRVTMTRDTSIDTAYLDLSRLRSDDTAVYYCAKDSGYDWYFDIWGRGTLVTVSSA
VL: EIVLTQSPATLSLSPGERATLSCRASQNISSYLAWYQQKPGQAPRLLIYDASNRATGIPARFSGSGSGTDFTLTISSLEPEDFAVFYCQQHSNWPPLTFGGGTKVEIKR
B6: 3E2-PBD (conjugate)
VH: B2 VH
VL: B2 VL

These molecules were tested on Cynomolgus monkey SEZ6L2 (assay: ForteBio Octet binding kinetics, Protein A biosensors). Details: not given.
Description: (§1) Affinity: The affinity of antibodies to various recombinant SEZ6L2 molecules was determined on an Octet Red (Pall, ForteBio) instrument. After loading reagents into a 96-well plate, the Octet Red with Protein A-conjugated biosensors was programmed as follows: 30 seconds for baseline #1; 120 seconds to immobilize the antibody; 30 seconds for baseline #2; 300 seconds for association of antibody to recombinant SEZ6L2; and 300-600 seconds for dissociation of recombinant SEZ6L2 from the antibody.
(§2) Table 10, below, indicates the KD, Kon, and Koff values for human antibodies 1A1, 3A1, 3A2, and 3A3 and humanized antibodies 16H8, 3E2, 20C4, and 2E4, for both human SEZ6L2 and cynomolgus monkey SEZL2, as determined by ForteBio Data Analysis 9.0 Kinetics software. Briefly, within the ForteBio Octet red96 instrument, Protein A biosensors were incubated with fixed amounts of the test antibody. The biosensors with bound antibody were then rinsed and dipped into wells containing varying concentrations of the recombinant target protein. Approximately 5 different concentrations were independently tested. After a period of time, the biosensors were dipped into buffer to allow the target protein to dissociate from the antibody. The ForteBio software package generated a best-fit curve for each of the profiles of the varying concentrations of target protein. The calculated affinity measurements were analyzed, and the rate constant values from the middle of the linear range were chosen.

Question: With B1 as the molecule, how does the “K(off)” value read?
Answer: 1.94E−03

Question: And the “K(on)” value?
Answer: 1.63E+05

Question: For B2, which “K(off)” value is on record?
Answer: 2.95E−03

Question: And the “K(on)” value?
Answer: 1.37E+06

Question: Which “K(off)” value does the source give for B3 here?
Answer: 3.18E−04

Question: What about the “K(on)” value of the same molecule?
Answer: 1.05E+05

What follows are molecules tested against T1, Human SEZ6L2 (Homo sapiens, UniProt Q6UXD5) in the same assay as above. Details: not given.
T1 construct: a protein composed of the extracellular portion of the human SEZ6L2 protein; His6 (C); made in house; host or cells: CHO (ExpiCHO)
T1 sequence (Q6UXD5 28-844 limits assumed): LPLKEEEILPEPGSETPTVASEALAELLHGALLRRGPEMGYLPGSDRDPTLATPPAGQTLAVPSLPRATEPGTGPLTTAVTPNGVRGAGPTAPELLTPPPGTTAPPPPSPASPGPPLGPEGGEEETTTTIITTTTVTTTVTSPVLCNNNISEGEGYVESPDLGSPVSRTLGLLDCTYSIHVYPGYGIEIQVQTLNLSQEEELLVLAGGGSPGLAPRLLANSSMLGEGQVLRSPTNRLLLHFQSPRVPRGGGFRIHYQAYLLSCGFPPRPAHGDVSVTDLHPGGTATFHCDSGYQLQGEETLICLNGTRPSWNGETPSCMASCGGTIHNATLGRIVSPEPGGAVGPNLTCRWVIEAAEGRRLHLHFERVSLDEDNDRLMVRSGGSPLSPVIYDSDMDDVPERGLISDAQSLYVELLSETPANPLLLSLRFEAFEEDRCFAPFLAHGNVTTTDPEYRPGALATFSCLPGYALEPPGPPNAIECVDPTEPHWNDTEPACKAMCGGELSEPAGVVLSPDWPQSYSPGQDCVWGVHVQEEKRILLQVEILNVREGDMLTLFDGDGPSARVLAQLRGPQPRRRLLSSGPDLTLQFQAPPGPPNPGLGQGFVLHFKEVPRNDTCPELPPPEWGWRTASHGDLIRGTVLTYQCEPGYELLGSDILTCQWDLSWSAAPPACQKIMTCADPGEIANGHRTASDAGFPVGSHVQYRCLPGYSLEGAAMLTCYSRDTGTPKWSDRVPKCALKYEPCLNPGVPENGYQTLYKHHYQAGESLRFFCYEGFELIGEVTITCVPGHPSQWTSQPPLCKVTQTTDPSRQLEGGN
Description: as §1, §2

Question: Which results are given for B4?
Answer: K(off): 2.20E−04; K(on): 6.03E+05

Question: B1 was tested. Which “K(off)” value did it give?
Answer: 1.33E−03

Question: And the “K(on)” value?
Answer: 2.05E+05

Question: Which “K(off)” value does the source give for B2 here?
Answer: 3.19E−03

Question: What about the “K(on)” value of the same molecule?
Answer: 1.33E+06

Question: B3 was tested. Which “K(off)” value did it give?
Answer: 2.20E−04

Question: And the “K(on)” value?
Answer: 6.35E+04

Each molecule was assayed against T2, SEZ6 (293-SEZ6) (Homo sapiens, UniProt Q53EL9) (assay: Flow cytometry specificity on overexpressing 293 cells). Details: primary antibody 1 ug/ml, live cells on ice.
T2 construct: expressed in transfected cells; host or cells: HEK 293
T2 sequence (Q53EL9 20-994): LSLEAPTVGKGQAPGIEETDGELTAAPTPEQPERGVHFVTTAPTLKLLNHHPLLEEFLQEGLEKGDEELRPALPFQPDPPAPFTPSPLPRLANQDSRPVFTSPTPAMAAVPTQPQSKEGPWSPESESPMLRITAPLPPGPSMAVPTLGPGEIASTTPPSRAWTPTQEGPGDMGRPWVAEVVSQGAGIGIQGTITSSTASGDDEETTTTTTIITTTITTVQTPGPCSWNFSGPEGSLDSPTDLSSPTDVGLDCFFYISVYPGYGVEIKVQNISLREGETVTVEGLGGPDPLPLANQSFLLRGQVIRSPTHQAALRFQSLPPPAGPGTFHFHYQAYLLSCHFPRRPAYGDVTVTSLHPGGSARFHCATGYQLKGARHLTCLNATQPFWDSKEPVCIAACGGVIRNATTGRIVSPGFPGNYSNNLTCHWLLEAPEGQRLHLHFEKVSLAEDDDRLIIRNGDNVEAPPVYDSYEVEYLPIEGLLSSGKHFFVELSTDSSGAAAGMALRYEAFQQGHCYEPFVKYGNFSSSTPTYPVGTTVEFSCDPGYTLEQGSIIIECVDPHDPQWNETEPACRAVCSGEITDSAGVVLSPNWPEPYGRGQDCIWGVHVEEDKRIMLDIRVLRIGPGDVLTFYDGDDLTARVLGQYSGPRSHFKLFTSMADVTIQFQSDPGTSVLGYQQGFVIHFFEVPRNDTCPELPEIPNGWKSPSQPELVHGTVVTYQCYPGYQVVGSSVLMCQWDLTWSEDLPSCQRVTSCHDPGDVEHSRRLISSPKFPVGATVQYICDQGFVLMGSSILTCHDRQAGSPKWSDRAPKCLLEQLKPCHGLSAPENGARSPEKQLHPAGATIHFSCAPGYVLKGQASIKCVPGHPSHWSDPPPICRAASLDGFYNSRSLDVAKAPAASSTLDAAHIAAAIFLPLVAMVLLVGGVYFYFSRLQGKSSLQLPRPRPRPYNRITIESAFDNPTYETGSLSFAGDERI
Assay type: binding
Description: (§3) In order to assess whether SEZ6L2 antibody modulators immunospecifically associate with human SEZ6L2, and to determine whether the same modulators cross-react with SEZ6 and SEZ6L, flow cytometry was performed using a MACSquant™ as per the manufacturer's instructions. More particularly, modulators were tested for cross reactivity to cell lines that overexpress the human homologs of SEZ6 (293-SEZ6), SEZ6L (293-SEZ6L), and SEZ6L2 (293-SEZ6L2).
(§4) Briefly, staining for flow cytometry was performed in lx cold PBS with 0.5% BSA. Primary antibodies (1 ug/ml) were incubated with live cells on ice for one hour. After washing in the same buffer, cells were incubated with Alexa Fluro® 488-conjugated anti-human IgG secondary antibody @1:1000 (709-546-149, Jackson ImmunoResearch) on ice in the dark. After a 30 minute incubation, cells were washed in the same buffer and re-suspended in buffer plus propidium iodide (PI) to identify live cells. As a negative control, cells were incubated with secondary antibody alone. Acquisition of the data was performed on a MACSQuant® Flow Cytometer (Miltenyi Biotec) and analyzed with FlowJo software.

Question: With B4 as the molecule, how does the “binding to 293-SEZ6 cells by flow cytometry” value (“binding to 293-SEZ6 cells” below) read?
Answer: no detectable binding

Question: B1 was tested. Which “binding to 293-SEZ6 cells” value did it give?
Answer: no detectable binding

Question: With B5 as the molecule, how does the “binding to 293-SEZ6 cells” value read?
Answer: no detectable binding

Question: B2 was tested. Which “binding to 293-SEZ6 cells” value did it give?
Answer: no detectable binding

Question: With B3 as the molecule, how does the “binding to 293-SEZ6 cells” value read?
Answer: no detectable binding

Each molecule was assayed against T3, SEZ6L (293-SEZ6L) (Homo sapiens, UniProt Q9BYH1) in the same assay as above. Details: primary antibody 1 ug/ml, live cells on ice.
T3 construct: expressed in transfected cells; host or cells: HEK 293
T3 sequence (Q9BYH1 29-1024): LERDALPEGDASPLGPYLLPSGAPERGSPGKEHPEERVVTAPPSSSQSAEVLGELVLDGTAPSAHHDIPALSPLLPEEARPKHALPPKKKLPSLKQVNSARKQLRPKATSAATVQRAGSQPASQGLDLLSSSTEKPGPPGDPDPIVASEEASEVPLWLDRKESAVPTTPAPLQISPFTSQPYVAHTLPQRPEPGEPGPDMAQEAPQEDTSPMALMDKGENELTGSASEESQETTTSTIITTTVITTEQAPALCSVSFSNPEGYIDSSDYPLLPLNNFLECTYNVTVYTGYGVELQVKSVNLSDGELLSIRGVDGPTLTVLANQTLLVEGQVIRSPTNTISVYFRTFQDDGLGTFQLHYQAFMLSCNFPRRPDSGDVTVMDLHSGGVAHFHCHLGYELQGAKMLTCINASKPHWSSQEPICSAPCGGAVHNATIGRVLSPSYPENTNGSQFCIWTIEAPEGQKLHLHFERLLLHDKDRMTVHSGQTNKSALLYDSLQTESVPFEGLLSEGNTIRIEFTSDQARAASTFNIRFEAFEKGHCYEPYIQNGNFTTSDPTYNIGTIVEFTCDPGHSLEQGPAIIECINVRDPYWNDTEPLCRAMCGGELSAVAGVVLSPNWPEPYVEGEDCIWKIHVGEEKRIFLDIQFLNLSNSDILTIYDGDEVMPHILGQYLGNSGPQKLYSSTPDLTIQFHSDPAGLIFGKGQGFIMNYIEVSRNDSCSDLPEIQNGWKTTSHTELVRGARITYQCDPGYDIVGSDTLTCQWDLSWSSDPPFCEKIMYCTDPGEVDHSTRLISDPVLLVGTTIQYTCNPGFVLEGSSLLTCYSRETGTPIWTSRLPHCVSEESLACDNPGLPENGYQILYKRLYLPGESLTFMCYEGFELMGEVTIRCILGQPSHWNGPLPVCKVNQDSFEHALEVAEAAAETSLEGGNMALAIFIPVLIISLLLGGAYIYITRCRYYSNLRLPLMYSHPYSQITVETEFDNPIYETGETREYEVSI
Assay type: binding
Description: as §3, §4

Question: For B4, which “binding to 293-SEZ6L cells by flow cytometry” value (shortened to “binding to 293-SEZ6L cells”) is on record?
Answer: no detectable binding

Question: Which “binding to 293-SEZ6L cells” value does the source give for B1 here?
Answer: no detectable binding

Question: B5 was tested. Which “binding to 293-SEZ6L cells” value did it give?
Answer: no detectable binding

Question: With B2 as the molecule, how does the “binding to 293-SEZ6L cells” value read?
Answer: no detectable binding

Question: Which “binding to 293-SEZ6L cells” value does the source give for B3 here?
Answer: no detectable binding

The molecules below were run against T4, SEZ6L2 (293-SEZ6L2) (Homo sapiens, UniProt Q6UXD5) in the same assay as above. Details: primary antibody 1 ug/ml, live cells on ice.
T4 construct: cDNA encoding the complete mature human SEZ6L2 protein containing a C-terminal FLAG tag was purchased from Origene; FLAG (C); host or cells: HEK 293
T4 sequence (Q6UXD5 28-910): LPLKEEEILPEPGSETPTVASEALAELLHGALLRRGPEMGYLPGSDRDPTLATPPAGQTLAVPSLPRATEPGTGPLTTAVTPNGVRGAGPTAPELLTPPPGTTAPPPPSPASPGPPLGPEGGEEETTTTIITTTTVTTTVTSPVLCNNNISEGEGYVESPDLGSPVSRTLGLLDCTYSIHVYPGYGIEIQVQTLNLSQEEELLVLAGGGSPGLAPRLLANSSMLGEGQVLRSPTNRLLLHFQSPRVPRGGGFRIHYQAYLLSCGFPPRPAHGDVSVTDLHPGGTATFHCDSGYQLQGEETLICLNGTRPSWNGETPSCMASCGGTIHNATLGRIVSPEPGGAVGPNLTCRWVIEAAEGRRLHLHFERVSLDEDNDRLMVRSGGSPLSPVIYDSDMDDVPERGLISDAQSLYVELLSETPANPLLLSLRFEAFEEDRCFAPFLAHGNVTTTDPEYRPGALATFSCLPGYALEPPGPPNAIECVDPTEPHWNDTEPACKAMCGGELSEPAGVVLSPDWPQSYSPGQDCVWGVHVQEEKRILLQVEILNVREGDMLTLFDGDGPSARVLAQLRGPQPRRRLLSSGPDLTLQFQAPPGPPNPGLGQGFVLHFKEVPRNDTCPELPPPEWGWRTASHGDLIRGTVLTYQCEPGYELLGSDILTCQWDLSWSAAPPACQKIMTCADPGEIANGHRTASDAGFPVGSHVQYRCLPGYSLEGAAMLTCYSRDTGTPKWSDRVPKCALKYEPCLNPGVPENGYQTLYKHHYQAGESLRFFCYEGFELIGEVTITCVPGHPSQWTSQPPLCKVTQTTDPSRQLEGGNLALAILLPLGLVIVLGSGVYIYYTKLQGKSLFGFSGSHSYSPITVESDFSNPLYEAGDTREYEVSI
Assay type: binding
Description: as §3, §4

Question: With B4 as the molecule, how does the “binding to 293-SEZ6L2 cells by flow cytometry” value (from here on “binding to 293-SEZ6L2 cells”) read?
Answer: recognize a cell line that overexpresses SEZ6L2

Question: B1 was tested. Which “binding to 293-SEZ6L2 cells” value did it give?
Answer: recognize a cell line that overexpresses SEZ6L2

Question: For B5, which “binding to 293-SEZ6L2 cells” value is on record?
Answer: recognize a cell line that overexpresses SEZ6L2

Question: For B2, which “binding to 293-SEZ6L2 cells” value is on record?
Answer: recognize a cell line that overexpresses SEZ6L2

Question: B3 was tested. Which “binding to 293-SEZ6L2 cells” value did it give?
Answer: recognize a cell line that overexpresses SEZ6L2

These molecules were tested on small cell lung cancer cell line NCI-H209 (assay: ADC combined with PARP inhibitor, cell viability). Details: 10 pM conjugate plus olaparib 10 nM to 10 uM, six days.
Assay type: cell-based, human
Description: Briefly, the small cell lung cancer cell line NCI-H209, which expresses ˜10,000 copies of SEZ6L2 on the cell surface, was seeded onto 96 well plate at 5000 cells/well Immediately after seeding, 10 pM of 3E2-PBD or isotype control hIgG-PBD (bearing a drug antibody ratio (DAR) of 1.7 and 2.5 respectively) were added to the wells in complete culture medium. A PARP inhibitor (olaparib) was then added to these wells such that the final concentration ranged from 10 nM to 10 uM. The PARP inhibitor was also tested on cells without an ADC. Each treatment was replicated in 2 wells and after six days, the PARP inhibitor plus modulator-mediated PBD cytotoxicity was assessed by quantifying the remaining number of live cells using Cell Titer Glo™. Cell viability was graphed by Prism™ using ratio of cell viability of test conditions to that of control wells treated with growth medium only.

Question: Which “percent viable cells, conjugate combined with PARP inhibitor” value does the source give for B6 here?
Answer: additive effect

— patent US11634486B2, “Anti-SEZ6L2 antibodies and antibody drug conjugates” (Bluefin BioMedicine, Inc., priority 2016, dated 2023)
